First the molecules themselves.
B1: hu1H2-03 (antibody, V domains shown)
VH: EVQLVESGGGLVQPGGSLRLSCAASGFTFSDYGLHWVRQAPGKGLEWVSYISSGSSTVYFADTLKGRFTISRDNAKNSLYLQMNSLRAEDTAVYYCTRGTWYFDVWGRGTLVTVSS
VL: DIQMTQSPSSLSASVGDRVTITCRTSENIHSYLAWYQQKPGKSPQLLVYNAKTLADGVPSRFSGSGSGTDYTLTISSLQPEDFGTFYCQHFWTTSRTFGGGTKVEIK
notes: see m20
B2: hu1H2-13 (antibody, V domains shown)
VH: B1 VH with S49A
VL: B1 VL
B3: hu1H2-03-LD038 (8) (antibody, V domains shown)
VH: B1 VH
VL: B1 VL
modifications: drug-linker LD038 on cysteines freed by TCEP reduction, DAR 8.0; positions not given
notes: also called hu1H2-03 ADC
B4: hu14G1-03-LD038 (8) (antibody, V domains shown)
VH: EVQLVESGGGLVQPGGSLRLSCAASGFTFSDYGMHWVRQAPGKGLEWVSYISPGSSTIYYADTMKGRFTISRDNAKNSLYLQMNSLRAEDTAVYYCARAYGGSYWYFAVWGQGTLVTVSS
VL: B1 VL with T25A, E27G, F86Y, T93S, S95P, R96Y, V104L
modifications: drug-linker LD038 on cysteines freed by TCEP reduction, DAR 8.0; positions not given
notes: also called hu14G1-03 ADC
B5: hu1H2-13-LD038 (8) (antibody, V domains shown)
VH: B1 VH with S49A
VL: B1 VL
modifications: drug-linker LD038 on cysteines freed by TCEP reduction, DAR 8.0; positions not given
notes: also called hu1H2-13 ADC
B6: Sirtratumab-LD038 (8) (antibody, V domains shown)
VH: QVQLVESGGGVVQPGRSLRLSCAASGFTFSSYGMHWVRQAPGKGLEWVAVIWYDGSNQYYADSVKGRFTISRDNSKNTLFLQMHSLRAEDTAVYYCARGLTSGRYGMDWGQGTTVTVSS
VL: DIVMTQSPLSLPVTPGEPASISCRSSQSLLLSHGFNYLDWYLQKPGQSPQLLIYLGSSRASGVPDRFSGSGSGTDFTLKISRVEAEDVGLYYCMQPLQIPWTFGQGTKVEIK
modifications: drug-linker LD038 on cysteines freed by TCEP reduction, DAR 8.0; positions not given
notes: also called Sirtratumab ADC
B7: phA108-LD038 (8) (antibody, V domains shown)
VH: QVQLVQSGAEVKKPGASVKVSCTASGYIFNDYYLHWVRQAPGQGLEWVGIINPSGGSPVYAQKFQGRVTMTRDTSTNTVYMELSSLRSEDTAVYYCARGMVRGVRLFDYWGQGTLVTVSA
VL: EIVLTQSPATLSLSPGERATLSCRASQSVSSYLAWYQQKPGQTPRLLIYDASNRATGVPARFSGSGSGTDFTLTISSLETEDFAVYYCQQRTNWPLTFGGGTKVEIK
modifications: drug-linker LD038 on cysteines freed by TCEP reduction, DAR 8.0; positions not given
notes: also called phA108 ADC
B8: phA290-LD038 (8) (antibody, V domains shown)
VH: QVQLVQSGAEVKKPGASVKVSCKASGYTFTSYYMHWVRQAPGQGLEWMGIINPSGGSTSYAQKFQGRVTMTRDTSTSTVYMELSSLRSEDTAVYYCARGFTRYFDYWGQGTLVTVSA
VL: B7 VL with L4M, A9G, S31K, K39R, T43A, V58I, I75V, T80P, T92Y, K103T
modifications: drug-linker LD038 on cysteines freed by TCEP reduction, DAR 8.0; positions not given
notes: also called phA290 ADC

Where a chain is given by its changes, count along the chain named.

The first experiment concerns the target T1, human SLITRK6 extracellular domain linked to his tag (human, UniProt Q9H5Y7 27-608).
T1 construct: extracellular domain; also called huSLITRK6; Hu SLITRK6; not shown: his tag
Kind of experiment: ELISA, coated antigen.
B1 showed an EC50 of 0.04 nM.

On to B2, for which the EC50 was found to be 0.07 nM.

The target of a further experiment is T2, cynomolgus monkey SLITRK6 extracellular domain linked to his tag (cynomolgus monkey, UniProt G7PVK4 27-608).
T2 construct: extracellular domain; also called cynoSLITRK6; Cyno SLITRK6; not shown: his tag
Briefly: ELISA, coated antigen.
B1 yielded a concentration for a half-maximal effect (EC50) of 0.05 nM.

B2 came in with an EC50 of 0.05 nM.

In the next experiment the target is T3, human SLITRK6 on cells (human, UniProt Q9H5Y7 27-841). Briefly: cell-based or functional assay.
As for B3, the “IC50 (nM), cytotoxicity on CHP-212 cells (Cell Titer-Glo)” value came to 0.83 nM and the “IC50 (nM), cytotoxicity on RT4 cells (Cell Titer-Glo)” value (“IC50 (nM), cytotoxicity on RT4 cells” for short) stood at 7.02 nM.

For the molecule B4, the “IC50 (nM), cytotoxicity on CHP-212 cells (Cell Titer-Glo)” value amounted to 0.91 nM and the “IC50 (nM), cytotoxicity on RT4 cells” value was found to be 9.56 nM.

With B5, the “IC50 (nM), cytotoxicity on 293F-SLITRK6-C9 cells (Cell Titer-Glo)” value was determined as 0.06 nM; the “IC50 (nM), cytotoxicity on CHP-212 cells (Cell Titer-Glo)” value worked out at 0.93 nM; the “IC50 (nM), cytotoxicity on RT4 cells” value was determined as 5.06 nM.

For the molecule B6, the “IC50 (nM), cytotoxicity on 293F-SLITRK6-C9 cells (Cell Titer-Glo)” value was 0.06 nM; the “IC50 (nM), cytotoxicity on CHP-212 cells (Cell Titer-Glo)” value was 5.56 nM; the “IC50 (nM), cytotoxicity on RT4 cells” value worked out at 9.25 nM.

For the molecule B7, the “IC50 (nM), cytotoxicity on 293F-SLITRK6-C9 cells (Cell Titer-Glo)” value worked out at 0.06 nM; the “IC50 (nM), cytotoxicity on CHP-212 cells (Cell Titer-Glo)” value was 2.82 nM; the “IC50 (nM), cytotoxicity on RT4 cells” value stood at 7.29 nM.

B8: the “IC50 (nM), cytotoxicity on CHP-212 cells (Cell Titer-Glo)” value is 1.22 nM and the “IC50 (nM), cytotoxicity on RT4 cells” value stood at 5.9 nM.

A further experiment concerns the target T3, human SLITRK6 on cells. Kind of experiment: flow cytometry on RT4 cells.
Protocol: (§1) The binding activity of mAbs was evaluated by flow cytometer (Beckman, Cytoflex). Specifically, cells were incubated with 50 μL of mAbs or ADCs in series dilutions in PBS containing 1% BSA at 4° C. for 30 minutes. The cells were washed twice with PBS containing 1% BSA, stained with PE-conjugated anti human Fc in PBS containing 1% BSA and then incubated at 4° C. for 20 min. After that the cells were washed twice with PBS and analyzed by a flow cytometer.
B1 registered an EC50 of 0.28 nM.

Turning to B2, the EC50 came to 0.27 nM.

The next experiment addresses T3, human SLITRK6 on cells. Briefly: flow cytometry on RT4 cells. The source holds these as a separate data set.
Protocol: (§2) The binding activity of mAbs and ADCs was evaluated by flow cytometer (Beckman, Cytoflex). Specifically, cells were incubated with 50 μL of mAbs or ADCs in series dilutions in PBS containing 1% BSA at 4° C. for 30 min. The cells were washed twice with PBS containing 1% BSA, stained with PE-conjugated anti human Fc in PBS containing 1% BSA and then incubated at 4° C. for 20 min. After that the cells were washed twice with PBS and analyzed by a flow cytometer.
Molecule B3 gave an EC50 of 0.47 nM.

As to B4, the EC50 was found to be 0.46 nM.

The molecule B1 showed an EC50 of 0.36 nM.

Take B2: the EC50 was 0.27 nM.

Take B5: the EC50 came to 0.38 nM.

Turning to B6, the response was half-maximal at 0.31 nM (EC50).

The molecule B7 showed an EC50 of 0.16 nM.

The molecule B8 had an EC50 of 0.16 nM.

The target of another experiment is T3, human SLITRK6 on cells. Briefly: flow cytometry on SCC-4 cells.
Protocol: as §1
The molecule B1 had an EC50 of 0.27 nM.

B2 showed an EC50 of 0.23 nM.

Another experiment has as its target T3, human SLITRK6 on cells. Briefly: flow cytometry on SW780 cells.
Protocol: as §1
Turning to B1, the EC50 amounted to 0.41 nM.

B2 returned an EC50 of 0.45 nM.

The next experiment deals with T3, human SLITRK6 on cells. Kind of experiment: flow cytometry on SW780 cells. The source holds these as a separate data set.
Protocol: as §2
As to B3, the midpoint of the response, the EC50, lay at 0.44 nM.

B4 yielded an EC50 of 0.64 nM.

With B1, the EC50 is 0.44 nM.

B2 returned an EC50 of 0.44 nM.

With B5, the EC50 stood at 0.61 nM.

The molecule B6 showed an EC50 of 0.38 nM.

The molecule B7 displayed an EC50 of 0.29 nM.

B8 showed an EC50 of 0.27 nM.

The next experiment has as its target T3, human SLITRK6 on cells. Briefly: flow cytometry on CHP-212 cells.
Protocol: as §1
Turning to B1, the response was half-maximal at 0.22 nM (EC50).

The molecule B2 yielded a half-maximal effective concentration (EC50) of 0.22 nM.

The target in the next experiment is T3, human SLITRK6 on cells. Kind of experiment: flow cytometry on CHP-212 cells. This is another data set of the same source.
Protocol: as §2
B3 yielded an EC50 of 0.4 nM.

Regarding B4, the EC50 turned out to be 0.65 nM.

Consider B1, for which a half-maximal effect (EC50) was put at 0.24 nM.

Regarding B2, the EC50 is 0.22 nM.

As for B5, the midpoint of the response, the EC50, lay at 0.5 nM.

As to B6, the EC50 was determined as 0.49 nM.

Regarding B7, the EC50 is 0.14 nM.

B8 gave an EC50 of 0.13 nM.

In a further experiment the target is T3, human SLITRK6 on cells. Briefly: flow cytometry on RT112/84 cells.
Protocol: as §1
B1 showed an EC50 of 0.23 nM.

In turn, B2 came in with an EC50 of 0.17 nM.

The next experiment concerns the target T3, human SLITRK6 on cells. Briefly: flow cytometry on 293F-SLITRK6-C9 cells.
Protocol: as §2
Molecule B3 returned an EC50 of 1.35 nM.

B4 had an EC50 of 1.79 nM.

Turning to B1, the EC50 stood at 1.33 nM.

B2: the midpoint of the response, the EC50, lay at 1.32 nM.

As to B5, the EC50 turned out to be 1.6 nM.

B6 showed an EC50 of 1.32 nM.

Molecule B7 gave an EC50 of 1.09 nM.

The molecule B8 gave an EC50 of 0.79 nM.

The next experiment has as its target T3, human SLITRK6 on cells. Briefly: flow cytometry on 293F-huSLITRK6-C9 cells.
Protocol: The binding activity of mAbs was evaluated by flow cytometer (Beckman, Cytoflex). Specifically, cells were incubated with 50 μL of mAbs or ADCs in series dilutions in PBS containing 1% BSA at 4° C. for 30 min. The cells were washed twice with PBS containing 1% BSA, stained with PE-conjugated anti human Fc in PBS containing 1% BSA and then incubated at 4° C. for 20 min. After that the cells were washed twice with PBS and analyzed by a flow cytometer.
With B1, the EC50 was determined as 1.33 nM.

For the molecule B2, a half-maximal effect (EC50) was put at 1.32 nM.

A further experiment concerns the target T1, human SLITRK6 extracellular domain …. Briefly: BLI; antigen ECD-his on anti-his tips, antibody as analyte; 1:1 fit.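 Further: antibody at several concentrations, 180 s association then 300 s dissociation in Tris buffer at pH 6 or 7.5, rate constants from global fitting, KD computed as koff/kon.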
Protocol: (§3) Binding kinetic of antibody-antigen was characterized by the bio-layer interferometry (BLI). 100 nM of SLITRK6′ extracellular domain linked to his tag was immobilized on anti-his biosensor tips (Fortebio). The sensors were rinsed with the buffer (50 mM Tris-AcOH, pH 6 or 7.5, 0.05% v/v surfactant P20) for 10 min to remove the unbound molecules, then dipped in the antibody solutions at different concentrations for 180 seconds and interspersed by a rinsing step in the buffer solution for 300 seconds. Binding affinity was calculated using ForteBio Data Acquisition 6.3 software (ForteBio) and was derived by fitting the kinetic data to a 1:1 Langmuir binding model utilizing global fitting algorithms. The dissociation or association equilibrium constant KD was calculated from the binding rate constants as KD=koff/kₒₙ(where koff and kₒₙ represent the dissociation kinetic constant and the association kinetic constant, respectively).
As to B1, binding was put at a Kd of 0.92 nM, the koff is 0.000441 s⁻¹ and the kon came out at 480000 M⁻¹ s⁻¹.

With B2, the Kd was found to be 0.916 nM, the koff was 0.00044 s⁻¹ and the kon was determined as 480000 M⁻¹ s⁻¹.

For another experiment, the target named is T2, cynomolgus monkey SLITRK6 extracellular …. The experiment is described as above.
Protocol: as §3
For B1, binding was characterised by a dissociation constant (Kd) of 1.27 nM, the koff stood at 0.000444 s⁻¹ and the kon turned out to be 348000 M⁻¹ s⁻¹.

In the case of B2, the dissociation constant Kd stood at 1.36 nM, the koff was 0.000513 s⁻¹ and the kon is 376000 M⁻¹ s⁻¹.

In the next experiment the target is T1, human SLITRK6 extracellular domain …. Kind of experiment: BLI binning on huSLITRK6-his; Ab1 = row antibody first, then Ab2 (competitor) = phA108.
Protocol: (§4) Epitope binning was characterized by the bio-layer interferometry (BLI). 100 nM of human SLITRK6′ extracellular domain linked to his tag was immobilized on anti-his biosensor tips (Fortebio). The sensors were rinsed with the buffer (50 mM Tris-AcOH, pH 6 or 7.5, 0.05% v/v surfactant P20) for 30 seconds to remove the unbound molecules, then dipped in the 100 nM of antibody 1 solutions for 180 seconds and interspersed by a rinsing step in the buffer solution for 300 seconds. After that, the sensors were dipped in the 100 nM of antibody 2 solutions. The epitope cluster was calculated using ForteBio Data Acquisition 6.3 software.
On to B1, for which the epitope binning signal is 0.304.

In the case of B2, the epitope binning signal was 0.299.

The next experiment has the same target. Briefly: BLI binning on huSLITRK6-his; Ab1 = row antibody first, then Ab2 (competitor) = phA290.
Protocol: as §4
In turn, B1 displayed an epitope binning signal of 0.299.

With B2, the epitope binning signal was found to be 0.302.

For another experiment the target is unchanged. Briefly: BLI binning on huSLITRK6-his; Ab1 = row antibody first, then Ab2 (competitor) = hu1H2-03.
Protocol: as §4
Turning to B1, the epitope binning signal was determined as 0.0113.

As to B2, the epitope binning signal is 0.0288.

The target is the same in another experiment. Kind of experiment: BLI binning on huSLITRK6-his; Ab1 = row antibody first, then Ab2 (competitor) = hu1H2-13.
Protocol: as §4
B1 gave an epitope binning signal of 0.0122.

Regarding B2, the epitope binning signal was determined as 0.0284.

A further experiment shares this target. Kind of experiment: BLI binning on huSLITRK6-his; Ab1 = row antibody first, then Ab2 (competitor) = hu14G1-03.
Protocol: as §4
On to B1, for which the epitope binning signal was determined as 0.0077.

B2 yielded an epitope binning signal of 0.0231.

Another experiment has the same target. Kind of experiment: BLI binning on huSLITRK6-his; Ab1 = row antibody first, then Ab2 (competitor) = Sirtratumab.
Protocol: as §4
In the case of B1, the epitope binning signal was determined as 0.299.

Turning to B2, the epitope binning signal was determined as 0.312.
